In patent US20150125849A1:

Experiments:
[1] = biological target: GFP with His-tag at the C-extreme (pETsa-GFP-his) [GFP: P42212]; experiment: detection of diluted antigen with 5 µg purified IgG (data not shown)
[2] = biological target: GFP with His-tag at the N-extreme (pETsa-his-GFP) [GFP: P42212]; experiment: as above

- antigen dilution at which detected [1]: 32 × dilution
- antigen dilution at which detected [2]: 32 × dilution
Substance: His-tag MAb (Invitrogen, Carlsbad, USA) (antibody)
